Target: CFP-cA1-cA1, two chicken ASIC1 subunits concatenated in a dimer with an N terminal CFP (chicken) (UniProt Q1XA76)
Assay: FRET or BRET; FLIM-FRET: lifetime of the CFP donor at the plasma membrane of single live HEK293T ASIC1 KO cells co-transfected at varying cDNA ratios; multi-photon excitation at 860 nm, single exponential fits

## C4 YFP, chicken ASIC1 with YFP at the C4 position of the C tail (from UniProt Q1XA76 1-527) (natural protein)
  FRET efficiency (1:15 ratio): 15%

— article PMC8341984
